Assay results as given in a protein production outcome set (Wang et al. 2014).

Assay: label from the status in PepcDB records
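Further: failed if final PepcDB status was selected cloned or expressed and not failed if soluble or beyond.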

Sequence	protein production
MVKMIEQLKRSFAVAKKDMLIFYLKGPVIIMGLIFPFFLFLAFFIGRNLEKAQLFTALISMTAFFTSTAVGPTIIPWECRGRTFERLITAPVSLTTVLLGDLQASFYFGTAITFIISTVAIFILSIRPNLQIFLVATILAILTFSAMTILMSSYPPTDVPADIMMLSSLVKFSLLFISGIFVPLKDLPKYARWISYASPLTYYVDALRNSLGDGCLPLWIDFGMLALFGILFFLSGVAIHKKVLERRFT	failed
MVKMKKVEQLSSHLYLIDDFDLQHNERTGTYVLLGDDITLIETCAAPSLPYILDGLQQLHIDLNEVKNIIVTHVHLDHAGAAGLMMEKCPNATLYVHSRGARHMIDPTKLILGAKAVYKEDFDKLFDPILPIEEERVHIVQHGDTLQIAEDRILTFYDTPGHAKHHISIHDSLTNGIFTGDTIGIYYRELADLGVELYLPSTSPSQFQPDAMIASKNHIQSMNVDTIYFGHYGASSNVTEVYKQLEHWLPIFVHTGKEVFEKYNDFDEATKALQTILMDKISSHLIKLNVPSDHSVYNILHLDIEISAMGIIDYFTKLEKTNPPIS	failed
MVKNEVLMRVAELLKHRAENLVKHTEFKQWMSPSVREYWDDILNKTQSRPLFGWVKDLHLPANEDTPIPEPIELKPEAQALYDELQTQVGEVIHTGDWLLVDQERINQFGAVTEDMQWIHTNPDRAALESPFKTTIAHGFLTLALLPKLTDSVDEEKTLFPTAKMVVNIGLNSVRFPYPVKAGNRVRAVSTLSKVTPIKKGLEIEREIKVEIEGVRRPGCVVVSVIQLHF	failed
MVKRTSHKQASCPVARPLDVIGDGWSMLIVRDAFEGLTRFGEFQKSLGLAKNILAARLRNLVEHGVMVAVPAESGSHQEYRLTDKGRALFPLLVAIRQWGEDYFFAPDESHVRLVERDSGQPVPRLQVRAGDGSPLAAEDTRVSRD	not failed
MVKTAVLMATYNGEIFISEQLDSIRQQTLKPDYVLLRDDCSTDETVNVVNNYIAKHELEGWKIVKNDKNLGWRLNFRQLLIDVLAYEVDYVFFSDQDDIWYLDKNERQFAIMSDKPQIEVLSADVDIKTMSTEASVPHFLTFSSSDRISQYPKVYDYQTFRPGWTIAMKRDFAQAIADNWTFGANISHDNLIETTASIIGNGYNLNESVGVHIRYGGNASGNSKFVLNWKSPKTQHITGLKTFVDFYETMQKVVNKYQNDVALNQRLAFEKERLEASKLSLIHNSAFVIKNWRLYNSNSGRMRDLLFAFKKLEHHHHHH	not failed
MVKTKKEDLNQFLIPRLNTIYETLQLFDGTASPTVERVNWNDVLQMSDHLSKQATIVGMLWTGESPKADSLKETMESYFNALQGFLLCCHGSTLGAGPTLSSIIHVSVKQIVDSSFRLLQGSVSLYEGSYEKDKKPSIPQLSGVVWEACSSFKKVPATNITAIGRAITQVAVSMKDVLREMKEVKPACPLSECEASGDNMSSDDDDDDDLGDDLSPEEMEVATMVTEIVSETIMVIKELIRVITGMIKMENPKDNSGFVESLEKLLKLCQGTGVQIDELGACVYPPQEMNKMKQTVKVIQGNLDEFETEVERLKSSSDGFSGACGKLRNSLKHMETELDKRCEAELVVEMQNVTLDS	failed
MVLARAPEPHGGGNRLNSATMRVYLGKTHKHPHQNRRHTVSDISDYIVSHFKRSSREIGEVERRILELSHQKKLVSSDINAEFSAGASLGDRLADNIAKVGGSWGFILSFCFFLIFWAIINTIVLTTRAFDPYPFIFLNLLLSMLAAIQAPIIMMSQNRQAARDRFEAAKDYEVNLKAELEVLSLHEKIDVKVLAELAALRQDIAAIHHHVTRKDD	failed
MVLHVMLGEVVTKFLNMNNGVGEGGSQQRELHGKRKLFRGNDFAFSIARMAVAQICESVEVNPYQESQTREGVRFSSFQESALDTLTDVAVQYIQSIGKTAHLYANLAGRVDGNSLDILQALEDLGSGLGFAGVSDTDHCLADSGVVKDIIRYTGEAEEIPFVYSLPRFPFSKEKKPAPSFSEVGAEPPDEHIPVWLPAFPETELCDRSEETNAATIEGEIPSKENGSSLPSMQLSFDGGGRLEIHKSSKDVGESTEAVVEGNLFLTAPLRFVEKNVSPVVRPLELSNEVVRTNHVPDKHVRNNHHIPILEASAPSDKINNKNWLAISKDVEKVDVARKELTLVRFKIGTTKRSMCLAKNRSFQEEGWFQEGEDKREKTSEIKEKRERIDSQLSTQM	failed
MVLIGTVVNGAAIVIAALIGLLVKNIPERVKTTLMQAIGLAIVLLGVKMGLQTEQFLIVICSLVIGGVIGEMINLEKRLDHLGRWIESKVGGKKDGSIATAFVTTTLIYVVGAMAVLGALDSGLRGDHSVLLTKALLDGFLAILFTSTLGIGVLFSAIPVVLYQGSIALFASQIDQYVPTALMDSFITEMSATGGVMIVAIGLNLLNVVNIRVANLLPSLVIVAVLVTFVYKGFPF	failed
MVLTLDLADPAQPEHVFIVEDSRGATELKLYKSHYTIGKADSCDIRLHSIYASRQHATLVRFLTENGEVRYRLIDGDPETSRRSANGTYVNNRSITECDLKHYDQILFGADVKATYFYLSPQFRSLEHHHHHH	not failed
MVLTSGAGASLVLLNTFSEIYMRISTRVIGGALIATLLTQLTACGTIFYPDRRGQIGGKIDPVVAAMDAIGILFYVIPGLIAFGIDFATGAIYYPGGRTAQVDPAKLQEAVSPDGKVDNLKLQAILESELGQRLPLNDPRLIQHRGSIEQLASLGLVPAA	failed
MVMIMELLYAITAFILGMLHALEPGHGKSVVAAYILGTKADLKDAILLGTTITISHTAVIFLLGILSIYLLESLNVDVVHDMMSVVGGLILIAVGIWIIRSYLHPHEHKVDTKKGVITLGLSAGLVPCPAALAVLLLSISSGNLIDGLIYVAIFSIGLAISLTGLAVAFVESKELIKKYVGNRKVSKLPLISGSIIILIGLYTIAHPILEHAIV	failed
MVMQQIKKIGNSFWYMTPVSETDRPILGMVVGQEKTLMIDAGNSEEHAQLFLEMLKEQNVSNPDFVALTHWHWDHIFGLPVLQDALSIAHSETKKEMRTLVSYEWTDEALDARVKEGTEIAFCADCIKKEFEEKARNINIIPPTLTFQNQMELDLGEVTCVLKHVGGDHAHDSVVIYVKEEKILFLGDCIYADIFSSKWNYTTKRTFALIDELEKFDAETYILSHGEAINREEFLQEIRMLKAVGTYTEAHKGDEEKIKAAYKQELDRELNEDELETITYFVNGYEMNNQ	failed
MVNPIVVAAKQGQWQLVQEYLFAAASDQVNQRDERGLTVLMYAVASLEMTTVKQLLQAGADPNRSRPPHGITPLMLLAGLQSNPNNPEKNPVQQAIAAMLMEFGAEVNQGNDDGTTALMMAAYRNNLPLVETLLAGGARAKIQDQQGTTALEWAIKQQNLSMVRKLIEHHAPLDLSDGDGNLPLTLAIKTGDRVIVDYLLQAGAPWDQNGWFTAVEEGNVDQVKAFIQGGYPLTQAGDGGDTALHIACLEGYQSMVTILLEKGPKDMVNAVNQAGDTALHLAIAQGHVEIVTQLLNAGADGNFSSNGEPPLLTALTATHGNAQTQAVMVNALGRAGVDLDQTLWEGKTPLMLAAMANLAAVITTIANYSVQVNRGDPNGSTALMWACHRGHGAAVEALLTNFPALDLNLKNQGGQTALDLARLNHHGAIVALLESYISRSA	failed
MVNRFVLEPKTVLEGEQEQKLKDSEAAVASLQTSKEYLEKQVAEVENNLRELLQQEPGIAQQIMSMSM	failed
MVPDPFRVGPWTSVREAARLMAQRRVGSLVVVEDGQVLGVVTSRDLRGAHPNRLVVDVLKGPPVAISPEASLLEAKRLMEAKGLERLLVMRDRKLLGILTQGTLAFALGQHFDPLTGLPRADLLRHHLESLLAQGKDPTLLFVDLDDFGRLNKENGHPFGDRVLKTLGQRLKGFAQDLGGEVYRYGGDEFALVFPHPRQALLPALPSLLSPLEVEGKRVGFSVGVAGGRRRQRRVSANPSATADDLLKLASLASTHAKRQGSGWAPAEALKAKEGAPEGVSSPKEPQSAWGDNRRAARGGGGPRSGGRGSGPTGP	failed
